From publication PMC548379 come the findings set out here.

For the series, the target named is NF-kB p50 (rhNF-kB p50) (Homo sapiens, UniProt P19838 1-433). In words: competition.
NF-kB p50 (rhNF-kB p50), sequence (P19838 1-433): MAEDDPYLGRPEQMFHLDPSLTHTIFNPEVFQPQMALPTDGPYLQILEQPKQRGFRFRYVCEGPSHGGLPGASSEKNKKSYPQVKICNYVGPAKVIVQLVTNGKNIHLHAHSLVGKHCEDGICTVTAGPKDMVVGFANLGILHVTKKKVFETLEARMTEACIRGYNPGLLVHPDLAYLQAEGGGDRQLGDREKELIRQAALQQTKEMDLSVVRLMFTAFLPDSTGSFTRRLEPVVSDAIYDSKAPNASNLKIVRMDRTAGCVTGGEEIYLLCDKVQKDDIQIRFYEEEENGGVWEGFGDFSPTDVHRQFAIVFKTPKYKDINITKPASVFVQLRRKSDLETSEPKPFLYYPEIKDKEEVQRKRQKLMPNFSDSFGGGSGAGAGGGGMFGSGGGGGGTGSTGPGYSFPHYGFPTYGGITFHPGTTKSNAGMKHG

B1: cold NF-kB specific competition probe (dsDNA)
DNA 1: AGTTGAGGGGACTTTCCCAGGCTTTTT
DNA 2: GCCTGGGAAAGTCCCCTCAACTTTTTT
Consider B1, for which the binding result is “binds”.

B2: cold NF-kB nonspecific competition probe (dsDNA)
DNA 1: AGTTGAGATTACTTTCACCAGGCTTTTT
DNA 2: GCCTGTGAAAGTAATCTCAACTTTTTT
Take B2: the binding result is on record as “no binding”.
